This is an account of results in patent US20080311130A1 (IMMUNE DISEASE INSTITUTE, published 2008).

In experiment [1] the target is ICAM-1-Fcγ (ICAM-1 residues of 1-480 fused to the Fc of human IgG, R&D Systems) (human) (UniProt P05362). Briefly: flow cytometry on yeast-displayed I domain, ICAM-1-Fcγ 10 µg/ml. (In flow cytometry, cells or beads pass a laser one at a time.)
Experiment [2] concerns the target T1, ICAM-1-Fcγ (ICAM-1 residues of 1-480 fused to the Fc of human IgG, R&D Systems) (human, UniProt P05362 28-480).
T1 construct: range 1-480; Bought (R&D Systems); also called ICAM-1-Fcγ chimera; not shown: Fc of human IgG
Kind of experiment: SPR (Biacore). The method, then:
Sensograms show the binding of the I domain mutants (F292A, F265S, F292G, and F265S/F292G) to ICAM-1-Fcγ-coated sensor chip. In all sensograms, the signals from the control surface, as described in Materials and Methods, were subtracted. I domain mutants were injected in a series of concentrations starting from 100 μM for F292A and 1 μM for F292G, F265S, and F265S/F292G, and the subsequent concentrations were by two-fold serial dilutions.
(§1) Mutant I domains (F265S, F292A, F292G, F265S/F292G, and HA) with residues of Asn-129 to Tyr-307 were expressed in Escherichia coli BL21 (DE3) (Novagen), refolded, and purified as described previously⁶. ICAM-1-Fcγ-coupled or mock-coupled CM5 sensor chip as control was prepared using the amine coupling kit (BIAcore, Piscataway, N.J.), as described previously³³. Surface plasmon resonance was measured using Biacore 3000. I domains were injected over the chip in 20 mM Tris HCl, pH 8.0, 150 mM NaCl, 10 mM MgCl₂, at a flow rate of 10 μl/min at room temperature.
(§2) The values shown in the table are mean ± SD from three independent measurements. The parameters of kₒₙ, koff, and Kd were calculated by fitting the 1:1 Langmuir binding model to the Biacore sensogram. The values were from the previous studies ⁶.

Experiment [3] concerns the target T1, ICAM-1-Fcγ (ICAM-1 residues of 1-480 …). Kind of experiment: cell-based or functional assay.
Experiment [4] shares this target. Kind of experiment: SPR (Biacore); wild-type value from a previous study. For orientation: SPR reads the build-up and loss of mass on a sensor chip optically.
For experiment [5] the target is unchanged. Briefly: SPR (Biacore 3000), I domain injected over ICAM-1-Fcγ-coupled CM5 chip, 10 mM MgCl2. The method, then: as §1
Several of the most activating mutants were expressed in Escherichia coli and refolded in order to measure the kinetics of binding to ICAM-1 by surface plasmon resonance (FIG. 2). Data are shown in Table 2, and for comparison are shown kinetics measured for the wild-type and disulfide-bonded IA and HA mutants in a previous study⁶, and for the same disulfide-bonded HA mutant in the current study.
as §2

T1 sequence (P05362 28-480 limits assumed, form in doubt): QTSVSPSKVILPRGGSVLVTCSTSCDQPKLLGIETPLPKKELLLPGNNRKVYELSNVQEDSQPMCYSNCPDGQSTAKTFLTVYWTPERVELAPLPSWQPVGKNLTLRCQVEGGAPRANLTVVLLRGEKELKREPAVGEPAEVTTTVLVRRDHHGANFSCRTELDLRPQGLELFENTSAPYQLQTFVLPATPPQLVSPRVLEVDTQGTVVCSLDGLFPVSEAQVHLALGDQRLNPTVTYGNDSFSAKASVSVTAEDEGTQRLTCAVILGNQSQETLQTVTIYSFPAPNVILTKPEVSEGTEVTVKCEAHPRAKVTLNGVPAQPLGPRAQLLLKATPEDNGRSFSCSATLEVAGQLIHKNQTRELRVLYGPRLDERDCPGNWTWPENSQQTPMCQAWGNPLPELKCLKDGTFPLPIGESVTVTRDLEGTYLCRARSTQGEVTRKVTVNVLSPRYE
Chain of ICAM-1-Fcγ (ICAM-1 residues of 1-480 fused to the Fc of human IgG, R&D Systems) (human) (P05362 28-480 limits assumed): as the sequence (P05362 28-480 limits assumed, form in doubt) above

B1: αL I domain clone f1 (L289A), yeast-displayed (receptor, not shown: large carriers; small tags and cut ends)
chain: NVDLVFLFDGSMSLQPDEFQKILDFMKDVMKKLSNTSYQFAAVQFSTSYKTEFDFSDYVKWKDPDALLKHVKHMLLLTNTFGAINYVATEVFREELGARPDATKVLIIITDGEATDSGNIDAAKDIIRYIIGIGKHFQTKESQETLHKFASKPASEFVKIADTFEKLKDLFTELQKKIYVIEGTSKQDLT
As to B1, the ICAM-1 (% ASFI of HA) in experiment [1] is 1 % ASFI of HA.

B2: soluble αL I domain double mutant F265S/F292G, Asn-129 to Tyr-307 (receptor)
chain: NVDLVFLFDGSMSLQPDEFQKILDFMKDVMKKLSNTSYQFAAVQFSTSYKTEFDFSDYVKWKDPDALLKHVKHMLLLTNTFGAINYVATEVFREELGARPDATKVLIIITDGEATDSGNIDAAKDIIRYIIGIGKHSQTKESQETLHKFASKPASEFVKILDTGEKLKDLFTELQKKIY
Turning to B2, in experiment [2], the “fold decrease in dissociation rate compared to the F265S and F292G single mutants” value came out at 10 fold; the “fold higher binding affinity than the HA mutant” value is 20 fold; the “fold higher kon than the single mutants” value was 2 fold; the “fold slower dissociation rate than the HA I domain” value was roughly 100 fold. In addition, in experiment [3], the “IC50 in blocking the adhesion of PMA activated lymphocytes to ICAM-1 coated surfaces” value is 0.35 µM; the “potency relative to the HA I domain in lymphocyte adhesion to ICAM-1, transmigration and homotypic aggregation” value came out at 10 fold. In experiment [4], the “fold increase in affinity compared to the wild-type I domain” value is 200000 fold. In experiment [5], this molecule showed a Kd of 6 nM, a dissociation rate constant (koff) of 0.00015 s⁻¹ and an association rate constant (kon) of 25000 M⁻¹ s⁻¹.

Usually Kd stands for a measure of binding affinity in units of concentration. The low end stands for higher affinity, the high end for lower affinity. Broadly, the koff is the first-order rate constant of dissociation. A high value points to a short-lived complex. The kon is a measure of how fast the partners come together. Lower therefore signals slow association.
